Measured values published in US20140072563A1 (Regeneron, published 2014).
Residue numbers refer to the chain shown, from its start. Names may count otherwise.

B1: H1M1819N (antibody, V domains shown)
VH: EVQLVESGGGVVRPGGSLRLSCAASGFTFDDYAMHWVRQAPGKGLEWVAGISWNSGSIDYADSVKGRFTISRDNAKNSLYLQMNSLRAGDTALYYCAKDILDLDYYGLDVWGQGTTVTVSS
VL: DIQMTQSPSSLSASVGDRVTITCRASQDISSYLAWYQQKPGKVPNLLIYDASSLQSGVPSRFSGSGSGTDFTLTLSSLQPEDFASYYCQNYNSAPYTFGQGTKLEIK
notes: Hybridoma chimeric antibody: human variable domains, mouse constant domains (H1M prefix, mouse Fc)
B2: H2M1821N (antibody, V domains shown)
VH: EVQLVESGGGLVQPGRSLRLSCAASGFTFDDYAMHWVRQAPGKGLEWVSSISWNSGSIGYADSVKGRFTISRDNAKNSLYLQMNSLKPEDTALYYCTKDTDYGDYLDAFDIWGQGTMVAVAS
VL: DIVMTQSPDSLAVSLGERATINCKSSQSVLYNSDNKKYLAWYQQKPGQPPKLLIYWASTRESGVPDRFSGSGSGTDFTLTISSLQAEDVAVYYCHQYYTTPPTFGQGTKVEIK
notes: Hybridoma chimeric antibody: human variable domains, mouse IgG2 Fc (H2M prefix)
B3: H2M1829N (antibody, V domains shown)
VH: EVQLVESGGGVVRPGGSLRLSCVASGFTFDDYGMSWVRQAPGKGLECVSGINWNGGSTDYADSVKGRFTISRDNAKNSLYLQMNSLRAEDTALYHCARDGGDWDYFDLWGRGTLVTVSS
VL: EILMTQSPATLSVSPGERATLSCRASQSVSSNLAWYQQKPGQAPRLLIYGASTRATGIPARFSGSGSGTEFTLTISSLQSEDFAIYYCQEYNDWPLTFGGGTKVEIK
notes: as for B2
B4: H2M1824N (antibody, V domains shown)
VH: B3 VH with V23A, L93S, H95Y
VL: B3 VL with L3V, I85V, Y87F
notes: as for B2
B5: H2M1827N (antibody, V domains shown)
VH: B3 VH with V23A, N52S, S57N
VL: B3 VL
notes: as for B2
B6: H1M1828N (antibody, V domains shown)
VH: EVQLVESGGGLVQPGRSLRLSCAASGFTFDDYAMYWVRQAPGKGLEWVSGISWNSGSIGYADSVKGRFTISRDNAKNSLYLQMDSLRAEDTALYYCARDMMEVDLYGMDVWGQGTTVTVSS
VL: DIQMTQSPSSVSASVGDRVTITCRASQDISSWLAWYQQKPGTAPKFLIYETSSLQSGVPSRFSGSGSGTDFILTISSLQPEDFATYYCQQTDSFPHTFGQGTKLEIR
notes: as for B1
B7: H2M1930N (antibody, V domains shown)
VH: EVQLVESGGGLVKPGGSLRLSCVASGFTFSSYNMNWVRQAPGKGLEWVSFISGSSNYIHYADSVKGRFTISRDNAKNALYLQMNSLRAEDTAVYYCARDDGDYDWFDPWGQGTLVTVSS
VL: EIVLTQSPGTLSLSPGERATLSCRASQSVSSSYLAWYQQKPGQAPRLLIYGTSSRATGIPDRFSGSGSGTDFTLTISRLEPEDFAVYYCQQYDNSYTFGQGTKLEIK
notes: as for B2
B8: H2M1934N (antibody, V domains shown)
VH: EVQLVQSGGGLVKPGGSLRLSCAASGFTFSNFNMNWVRQAPGKGLEWVSFISSLSTYTYYADSVKGRFTISRDNAKNSLYLQMNSLRAEDTAVYYCARDDGDHDWFDPWGQGTLVTVSS
VL: B7 VL with G9D, S32N, G51S, T52A, S54N, N94S
notes: as for B2
B9: H2M1936N (antibody, V domains shown)
VH: EMQLVESGGGLVQPDRSLRLSCAASGFNFDNYAIHWVRQAPGKGLEWVSGISWNSGNIGYADSVKGRFTISRDNAKNSLFLLMNSLRPDDSALYYCTRGYNWNALSPMDVWGQGTTVTVSS
VL: B1 VL with I21V, D28G, S31N, N45K, D50A, S53T, L75I, F83V, Y96M, L104V
notes: as for B2
B10: H2M1930N (antibody, mouse IgG2, V domains shown)
VH: B7 VH
VL: B7 VL
B11: H2M1934N (antibody, mouse IgG2, V domains shown)
VH: B8 VH
VL: B7 VL with G9D, S32N, G51S, T52A, S54N, N94S
B12: H2M1936N (antibody, mouse IgG2, V domains shown)
VH: B9 VH
VL: B1 VL with I21V, D28G, S31N, N45K, D50A, S53T, L75I, F83V, Y96M, L104V
B13: H2M1937N (antibody, mouse IgG2, V domains shown)
VH: QVQLQQWDAGLLKPSETLSLTCAVYGGSFSSYYWSWIRQPPGKGLEWIGEINHRGSTNYNPSLKSRVTISVDTSKNQFSLKLRSVTAADTAVYYCARGGVAARPDWHFFDYWGQGTLVTVSS
VL: DIQMTQSPSSLSASVGDRVTITCRASQVIRNDLGWFQQRPGKAPKRLIYAASSLQSEVPSRFSGSGSGTEFTLTITSLQPEDFATYYCLQHNSYPLTFGQGTRLEIK
B14: H2M1938N (antibody, mouse IgG2, V domains shown)
VH: EVQLVESGGGVVRPGGSLRLSCAASGFTFDDYGMSWVRQVPGKGLEWVSGLNWNGGITGYTDSVKGRFTISRDNAKNSLYLQMNSLRAEDTAFYHCARDSGDQDAFDIWGQGTMVTVSS
VL: QIVMTQSPATLSVSPGERATLSCRASQSITPYLAWYQQKPGQTPRLLIYGVSTRATGIPARFSGSGSGTEFTLTISSLQSEDFAVYYCQQYDNWYTFGQGTKLEIK
B15: H1M1940N (antibody, V domains shown)
VH: QVQVVESGGGVVQPGRSLRLSCAASGFTFSDYGMHWVRQAPGKGLEWVAIISYDGSNKYYADSVKGRFTVSRDNSKNTLYLQLDSLRPEDAAVFYCAREGAFNLDYYAMDVWGQGTTVTVSS
VL: AIQMTQSPSSLSASVGDRVTITCRASQDIRNDLGWYQQKPGKAPNLLIYAASSLQSGVPSRFSGSGSGTDFTLTISSLQPEDFATYYCLQDSNYPLTFGGGTKVEIK

The binders below were run against T1, hErbB3.hFc (soluble dimeric human ErbB3 extracellular domain fused to human Fc) (human) (assay: blocking ELISA: antibody + 50 pM ErbB3-hFc on neuregulin1b-coated plate).
T1 construct: called dimeric
T1 sequence (chain, as listed by the source limits assumed): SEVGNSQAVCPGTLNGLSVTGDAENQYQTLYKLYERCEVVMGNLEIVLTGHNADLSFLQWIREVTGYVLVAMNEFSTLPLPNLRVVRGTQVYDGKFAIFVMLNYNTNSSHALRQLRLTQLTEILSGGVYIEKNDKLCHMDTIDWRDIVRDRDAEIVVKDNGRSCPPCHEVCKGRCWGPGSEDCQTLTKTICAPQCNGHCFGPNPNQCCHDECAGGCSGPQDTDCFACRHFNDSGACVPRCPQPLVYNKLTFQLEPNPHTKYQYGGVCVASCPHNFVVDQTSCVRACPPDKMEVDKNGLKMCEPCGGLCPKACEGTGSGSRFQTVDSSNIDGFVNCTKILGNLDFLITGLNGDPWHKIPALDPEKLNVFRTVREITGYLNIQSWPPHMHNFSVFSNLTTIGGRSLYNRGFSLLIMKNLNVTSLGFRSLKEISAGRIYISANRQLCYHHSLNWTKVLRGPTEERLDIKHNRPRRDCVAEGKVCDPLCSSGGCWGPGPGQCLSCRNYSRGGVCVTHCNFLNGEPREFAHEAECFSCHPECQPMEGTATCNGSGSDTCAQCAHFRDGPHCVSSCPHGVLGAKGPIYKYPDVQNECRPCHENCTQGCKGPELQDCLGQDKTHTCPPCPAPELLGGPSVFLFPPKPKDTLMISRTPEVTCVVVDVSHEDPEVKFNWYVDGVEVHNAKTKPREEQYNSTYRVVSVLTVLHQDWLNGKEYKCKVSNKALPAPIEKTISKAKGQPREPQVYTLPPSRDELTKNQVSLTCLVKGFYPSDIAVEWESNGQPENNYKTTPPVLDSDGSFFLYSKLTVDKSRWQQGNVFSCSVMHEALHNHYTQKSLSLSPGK
Text: To further characterize anti-hErbB3 mAbs of the present invention, their ability to block ligand binding was examined via ELISA. […] Plates were washed and non-sequestered (plate bound) ErbB3 was detected with an anti-Fc poly conjugated with horseradish peroxidase (HRP). Plates were developed with TMB (3,3′,5,5′-tetramethylbenzidine) and neutralized with sulfuric acid before reading absorbance at 450 nm on a Victor X5 plate reader. Data analysis used a sigmoidal dose-response model within Prism™ software. […] Maximal blocking for each antibody was calculated by taking the difference in absorbance from zero to 50 nM antibody on the inhibition curve, divided by the difference in absorbance from 50 pM to zero ErbB3 on the dose curve.

Row | Binder | IC50 [nM] | Maximal Blocking (%)
1 | B1 | 0.0315 | 92
2 | B2 | 0.0285 | 96
3 | B3 | 0.0238 | 98
4 | B4 | 0.0251 | 99
5 | B5 | 0.0229 | 98
6 | B6 | 0.03 | 95
7 | B7 | 0.0222 | 87
8 | B8 | 0.0261 | 80
9 | B9 | 0.527 | 91

What follows are binders tested against T1, hErbB3.hFc (soluble dimeric human ErbB3 …) (assay: SPR (Biacore), 25 C, mAb capture format).
Method: (§1) (Tables 2-4). Measurements were conducted on a Biacore 2000 or T100 instrument. […] Kinetic association (kₐ) and dissociation (kd) rate constants were determined by processing and fitting the data to a 1:1 binding model using Scrubber 2.0 curve fitting software.

Row | Binder | Kd [nM] | T½ [min] | koff [s⁻¹] | kon [M⁻¹ s⁻¹]
10 | B1 | 0.122 | 196 | 5.88e-05 | 480000
11 | B2 | 0.0413 | 608 | 1.9e-05 | 461000
12 | B3 | 0.0198 | 1340 | 8.61e-06 | 436000
13 | B4 | 0.00334 | 8030 | 1.44e-06 | 431000
14 | B5 | 0.0173 | 1520 | 7.58e-06 | 439000
15 | B6 | 0.0279 | 266 | 4.34e-05 | 1.56e+06
16 | B7 | 0.0205 | 1400 | 8.27e-06 | 404000
17 | B8 | 0.0222 | 1450 | 7.97e-06 | 359000
18 | B9 | 1.09 | 166 | 6.97e-05 | 64100

What follows are binders tested against hErbB3.mmh (soluble monomeric human ErbB3 extracellular domain with C-terminal myc-myc-hexahistidine tag) (human, UniProt P21860 20-642) (assay: SPR (Biacore), 25 C, mAb capture format).
Sequence of hErbB3.mmh (soluble monomeric human ErbB3 extracellular domain with C-terminal myc-myc-hexahistidine tag) (P21860 other isoform, or with tags, fused parts or gaps): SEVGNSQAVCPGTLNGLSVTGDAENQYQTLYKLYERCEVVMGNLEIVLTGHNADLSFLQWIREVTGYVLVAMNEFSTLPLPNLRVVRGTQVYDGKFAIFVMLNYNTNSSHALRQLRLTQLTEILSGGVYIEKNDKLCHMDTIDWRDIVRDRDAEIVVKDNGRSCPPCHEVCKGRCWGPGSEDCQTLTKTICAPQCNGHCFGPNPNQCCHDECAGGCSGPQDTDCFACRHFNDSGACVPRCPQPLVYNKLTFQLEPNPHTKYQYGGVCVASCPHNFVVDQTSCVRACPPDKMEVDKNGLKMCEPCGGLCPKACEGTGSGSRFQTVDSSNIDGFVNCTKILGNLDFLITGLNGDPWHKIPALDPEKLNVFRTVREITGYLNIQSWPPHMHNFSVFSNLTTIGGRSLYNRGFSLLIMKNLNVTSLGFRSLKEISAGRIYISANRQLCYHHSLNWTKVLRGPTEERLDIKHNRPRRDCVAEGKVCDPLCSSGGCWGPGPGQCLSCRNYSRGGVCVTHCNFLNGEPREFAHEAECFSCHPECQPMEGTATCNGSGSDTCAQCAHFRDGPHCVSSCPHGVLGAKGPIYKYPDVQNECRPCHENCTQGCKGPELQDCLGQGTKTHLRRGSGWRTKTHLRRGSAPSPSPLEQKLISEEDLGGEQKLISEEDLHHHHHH
Method: as §1

Row | Binder | Kd [nM] | T½ [min] | koff [s⁻¹] | kon [M⁻¹ s⁻¹]
19 | B1 | 1.01 | 36 | 0.000322 | 319000
20 | B2 | 0.867 | 58 | 0.000199 | 229000
21 | B3 | 0.281 | 179 | 6.46e-05 | 230000
22 | B4 | 0.205 | 254 | 4.56e-05 | 223000
23 | B5 | 0.409 | 129 | 8.96e-05 | 219000
24 | B6 | 0.515 | 44 | 0.000265 | 513000
25 | B7 | 0.559 | 106 | 0.000109 | 196000
26 | B8 | 0.438 | 157 | 7.35e-05 | 168000
27 | B9 | 6.59 | 41 | 0.000285 | 43200

What follows are binders tested against ErbB3 (cell surface, on MCF-7, DU145, A431 and MCF7 cells) (human, UniProt P21860 20-1342) (assay: cell-based or functional assay).
Sequence of ErbB3 (cell surface, on MCF-7, DU145, A431 and MCF7 cells) (P21860 20-1342): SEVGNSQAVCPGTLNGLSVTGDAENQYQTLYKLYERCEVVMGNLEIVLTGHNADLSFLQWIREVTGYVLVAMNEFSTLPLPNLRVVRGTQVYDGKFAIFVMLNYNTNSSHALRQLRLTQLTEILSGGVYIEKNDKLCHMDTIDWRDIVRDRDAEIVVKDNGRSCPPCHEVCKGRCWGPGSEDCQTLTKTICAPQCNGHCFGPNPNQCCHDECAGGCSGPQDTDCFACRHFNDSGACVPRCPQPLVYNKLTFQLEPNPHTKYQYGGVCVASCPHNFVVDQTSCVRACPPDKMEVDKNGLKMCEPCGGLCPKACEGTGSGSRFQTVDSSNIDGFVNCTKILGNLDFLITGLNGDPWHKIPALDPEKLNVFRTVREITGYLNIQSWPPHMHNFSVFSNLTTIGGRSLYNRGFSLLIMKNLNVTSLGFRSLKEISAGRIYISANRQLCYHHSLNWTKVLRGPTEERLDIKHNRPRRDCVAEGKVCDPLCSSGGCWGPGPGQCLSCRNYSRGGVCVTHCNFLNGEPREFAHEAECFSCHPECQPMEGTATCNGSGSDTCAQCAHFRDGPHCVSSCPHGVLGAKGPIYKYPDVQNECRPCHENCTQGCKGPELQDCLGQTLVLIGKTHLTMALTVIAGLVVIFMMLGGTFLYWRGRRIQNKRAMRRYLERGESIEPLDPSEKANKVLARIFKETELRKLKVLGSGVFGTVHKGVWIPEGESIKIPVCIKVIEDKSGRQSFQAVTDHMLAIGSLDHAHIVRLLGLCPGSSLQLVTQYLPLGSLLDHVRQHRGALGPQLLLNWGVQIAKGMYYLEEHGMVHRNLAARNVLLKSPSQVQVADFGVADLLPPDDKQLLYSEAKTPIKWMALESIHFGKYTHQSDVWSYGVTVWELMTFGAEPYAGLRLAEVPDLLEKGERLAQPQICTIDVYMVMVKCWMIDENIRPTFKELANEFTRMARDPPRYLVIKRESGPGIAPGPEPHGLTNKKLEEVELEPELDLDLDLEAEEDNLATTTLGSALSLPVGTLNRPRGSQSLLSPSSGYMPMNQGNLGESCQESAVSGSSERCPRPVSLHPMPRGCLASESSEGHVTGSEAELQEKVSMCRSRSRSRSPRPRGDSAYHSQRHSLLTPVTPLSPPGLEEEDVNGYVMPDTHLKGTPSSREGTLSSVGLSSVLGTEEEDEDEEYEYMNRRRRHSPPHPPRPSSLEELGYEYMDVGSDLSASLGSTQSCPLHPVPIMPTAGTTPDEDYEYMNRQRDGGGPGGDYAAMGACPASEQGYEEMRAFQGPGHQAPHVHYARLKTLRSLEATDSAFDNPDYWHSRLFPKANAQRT

Row | Binder | Percent inhibition of Akt phosphorylation, 0.01 µg/ml ErbB3 antibody, DU145 cells + 0.5 nM NRG1 [%] | Percent inhibition of Akt phosphorylation, 0.1 µg/ml ErbB3 antibody, DU145 cells + 0.5 nM NRG1 [%] | Percent inhibition of Akt phosphorylation, 0.5 µg/ml ErbB3 antibody, DU145 cells + 0.5 nM NRG1 [%]
28 | B10 | 39 | 64 | 66
29 | B11 | 20 | 56 | 67
30 | B12 | 6 | 30 | 67
31 | B13 | -13 | 41 | 71
32 | B14 | 40 | 63 | 74
33 | B15 | 13 | 50 | 68
